The values that follow come from PMC2976503 (The Journal of neuroscience : the official journal of the …, 2010).

The data set concerns the molecule itself. Description: SDS-resistant high molecular mass complex on SDS-PAGE.

B1: GABAA receptor γ2S(Q351X)^FLAG subunit (domain or fragment, human, UniProt P18507-1 40-389, looked up)
chain: QKSDDDYEDYASNKTWVLTPKVPEGDVTVILNNLLEGYDNKLRPDIGVKPTLIHTDMYVNSIGPVNAINMEYTIDIFFAQTWYDRRLKFNSTIKVLRLNSNMVGKIWIPDTFFRNSKKADAHWITTPNRMLRIWNDGRVLYTLRLTIDAECQLQLHNFPMDEHSCPLEFSSYGYPREEIVYQWKRSSVEVGDTRSWRLYQFSFVGLRNTTEVVKTTSGDYVVMSVYFDLSRRMGYFTIQTYIPCTLIVVLSWVSFWINKDAVPARTSLGITTVLTMTTLSTIARKSLPKVSYVTAMDLFVSVCFIFVFSALVEYGTLHYFVSNRKPSKDKDKKKKNPAPTIDIRPRSATI
Consider B1, for which the “stoichiometry N” value is 2.
